Test results from paper PMC9352680, “A comprehensive thermodynamic model for RNA binding by the Saccharomyces cerevisiae Pumilio protein PUF4”.

T1: PUF4 RNA-binding domain (Saccharomyces cerevisiae, UniProt P25339 537-888)
T1 sequence: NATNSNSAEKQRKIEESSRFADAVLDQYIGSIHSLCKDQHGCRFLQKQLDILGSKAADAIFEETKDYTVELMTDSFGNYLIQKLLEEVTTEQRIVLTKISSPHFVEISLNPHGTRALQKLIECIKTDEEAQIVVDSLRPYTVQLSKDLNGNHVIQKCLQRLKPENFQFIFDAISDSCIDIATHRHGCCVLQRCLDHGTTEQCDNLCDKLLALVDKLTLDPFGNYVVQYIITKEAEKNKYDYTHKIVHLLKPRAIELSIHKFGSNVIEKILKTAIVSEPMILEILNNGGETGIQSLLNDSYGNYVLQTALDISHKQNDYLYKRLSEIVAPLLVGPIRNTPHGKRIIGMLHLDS

B1: Ic_S4_P4E.1_K4.1_C4.1_H4.1_A4.1_[T5C]_[T7A]_F4.1_T4.1 (ssRNA)
RNA: UUUGACAACUGAUCGUUCUUUCUUGUACAAUAUUCUUUCUCGAUCAGUUGUCUUU
B2: Ib_S4_P4E.1_K4.1_C4.1_H4.1_A4.1_[A6C]_[T7G]_F4.1_T4.1 (ssRNA)
RNA: UUUGACAACUGAUCGUUCUUUCUUGUAUCGUAUUCUUUCUCGAUCAGUUGUCUUU
B3: Ia_S4_P4E.1_K4.1_C4.1_H4.1_[A4G]_A4.1_F4.1_T4.1 (ssRNA)
RNA: UUUGACAACUGAUCGUUCUUUCUUGUGUAUUAUUCUUUCUCGAUCAGUUGUCUUU
B4: Ib_S4_P4E.1_K4.1_C4.1_H4.1_A4.1_[T5A]_[T7C]_F4.1_T4.1 (ssRNA)
RNA: UUUGACAACUGAUCGUUCUUUCUUGUAAACUAUUCUUUCUCGAUCAGUUGUCUUU
B5: Ia_S4_P4E.1_K4.1_C4.1_H4.1_[T3C]_A4.1_F4.1_T4.1 (ssRNA)
RNA: UUUGACAACUGAUCGUUCUUUCUUGCAUAUUAUUCUUUCUCGAUCAGUUGUCUUU
B6: Ib_S4_P4E.1_K4.1_C4.1_H4.1_A4.1_[A6C]_[T7C]_F4.1_T4.1 (ssRNA)
RNA: UUUGACAACUGAUCGUUCUUUCUUGUAUCCUAUUCUUUCUCGAUCAGUUGUCUUU
B7: Ib_S4_P4E.1_K4.1_C4.1_H4.1_A4.1_[A6T]_[T7A]_F4.1_T4.1 (ssRNA)
RNA: UUUGACAACUGAUCGUUCUUUCUUGUAUUAUAUUCUUUCUCGAUCAGUUGUCUUU
B8: Ic_S4_P4E.1_K4.1_C4.1_H4.1_A4.1_[A6T]_[T7C]_F4.1_T4.1 (ssRNA)
RNA: UUUGACAACUGAUCGUUCUUUCUUGUAUUCUAUUCUUUCUCGAUCAGUUGUCUUU
B9: Ia_S4_P4E.1_K4.1_C4.1_H4.1_[G2T]_A4.1_F4.1_T4.1 (ssRNA)
RNA: UUUGACAACUGAUCGUUCUUUCUUUUAUAUUAUUCUUUCUCGAUCAGUUGUCUUU
B10: Ib_S4_P4E.1_K4.1_C4.1_H4.1_A4.1_[A6T]_[T7G]_F4.1_T4.1 (ssRNA)
RNA: UUUGACAACUGAUCGUUCUUUCUUGUAUUGUAUUCUUUCUCGAUCAGUUGUCUUU
B11: Ia_S4_P4E.1_K4.1_C4.1_H4.1_[G2A]_A4.1_F4.1_T4.1 (ssRNA)
RNA: UUUGACAACUGAUCGUUCUUUCUUAUAUAUUAUUCUUUCUCGAUCAGUUGUCUUU
B12: Ib_S4_P4E.1_K4.1_C4.1_H4.1_A4.1_[A6C]_[T7A]_F4.1_T4.1 (ssRNA)
RNA: UUUGACAACUGAUCGUUCUUUCUUGUAUCAUAUUCUUUCUCGAUCAGUUGUCUUU
B13: Ib_S4_P5E.1_K5.1_C5.1_H5.1_A5.1_F5.1_[T8G]_[A10G]_T5.1 (ssRNA)
RNA: UUUGACAACUGAUCGUUCUUUCUUGUAUUAGUGUUCUUUCUCGAUCAGUUGUCUUU
B14: Ib_S4_P5E.1_K5.1_C5.1_H5.1_[A4G]_A5.1_F5.1_[A10C]_T5.1 (ssRNA)
RNA: UUUGACAACUGAUCGUUCUUUCUUGUGUUAUUCUUCUUUCUCGAUCAGUUGUCUUU
B15: Ib_S4_P5E.1_K5.1_C5.1_H5.1_[G2A]_A5.1_F5.1_[T8G]_T5.1 (ssRNA)
RNA: UUUGACAACUGAUCGUUCUUUCUUAUAUUAGUAUUCUUUCUCGAUCAGUUGUCUUU
B16: Ib_S4_P5E.1_K5.1_C5.1_H5.1_A5.1_F5.1_[T8A]_[A10G]_T5.1 (ssRNA)
RNA: UUUGACAACUGAUCGUUCUUUCUUGUAUUAAUGUUCUUUCUCGAUCAGUUGUCUUU
B17: Ib_S4_P5E.1_K5.1_C5.1_H5.1_[A4C]_A5.1_F5.1_[A10T]_T5.1 (ssRNA)
RNA: UUUGACAACUGAUCGUUCUUUCUUGUCUUAUUUUUCUUUCUCGAUCAGUUGUCUUU
B18: Ib_S4_P5E.1_K5.1_C5.1_H5.1_[T3C]_A5.1_F5.1_[A10C]_T5.1 (ssRNA)
RNA: UUUGACAACUGAUCGUUCUUUCUUGCAUUAUUCUUCUUUCUCGAUCAGUUGUCUUU
B19: Ib_S4_P5E.1_K5.1_C5.1_H5.1_[A4C]_A5.1_F5.1_[T8C]_T5.1 (ssRNA)
RNA: UUUGACAACUGAUCGUUCUUUCUUGUCUUACUAUUCUUUCUCGAUCAGUUGUCUUU
B20: Ib_S4_P5E.1_K5.1_C5.1_H5.1_[G2C]_A5.1_F5.1_[T8C]_T5.1 (ssRNA)
RNA: UUUGACAACUGAUCGUUCUUUCUUCUAUUACUAUUCUUUCUCGAUCAGUUGUCUUU
B21: Ic_S4_P5E.1_K5.1_C5.1_H5.1_A5.1_[T5C]_F5.1_[T8C]_T5.1 (ssRNA)
RNA: UUUGACAACUGAUCGUUCUUUCUUGUACUACUAUUCUUUCUCGAUCAGUUGUCUUU
B22: Ib_S4_P5E.1_K5.1_C5.1_H5.1_A5.1_F5.1_[T9G]_[A10C]_T5.1 (ssRNA)
RNA: UUUGACAACUGAUCGUUCUUUCUUGUAUUAUGCUUCUUUCUCGAUCAGUUGUCUUU
B23: Ib_S4_P5E.1_K5.1_C5.1_H5.1_[A4C]_A5.1_F5.1_[T8A]_T5.1 (ssRNA)
RNA: UUUGACAACUGAUCGUUCUUUCUUGUCUUAAUAUUCUUUCUCGAUCAGUUGUCUUU
B24: Ib_S4_P5E.1_K5.1_C5.1_H5.1_[A4T]_A5.1_F5.1_[T8G]_T5.1 (ssRNA)
RNA: UUUGACAACUGAUCGUUCUUUCUUGUUUUAGUAUUCUUUCUCGAUCAGUUGUCUUU
B25: Ib_S4_P5E.1_K5.1_C5.1_H5.1_[T1C]_A5.1_F5.1_[T8C]_T5.1 (ssRNA)
RNA: UUUGACAACUGAUCGUUCUUUCUCGUAUUACUAUUCUUUCUCGAUCAGUUGUCUUU
B26: Ic_S4_P5E.1_K5.1_C5.1_H5.1_A5.1_F5.1_[T8C]_[A10G]_T5.1 (ssRNA)
RNA: UUUGACAACUGAUCGUUCUUUCUUGUAUUACUGUUCUUUCUCGAUCAGUUGUCUUU
B27: Ib_S4_P5E.1_K5.1_C5.1_H5.1_[A4C]_A5.1_F5.1_[A10C]_T5.1 (ssRNA)
RNA: UUUGACAACUGAUCGUUCUUUCUUGUCUUAUUCUUCUUUCUCGAUCAGUUGUCUUU
B28: Ic_S4_P5E.1_K5.1_C5.1_H5.1_A5.1_F5.1_[T9A]_[A10C]_T5.1 (ssRNA)
RNA: UUUGACAACUGAUCGUUCUUUCUUGUAUUAUACUUCUUUCUCGAUCAGUUGUCUUU
B29: Ib_S4_P5E.1_K5.1_C5.1_H5.1_[G2A]_A5.1_F5.1_[T8A]_T5.1 (ssRNA)
RNA: UUUGACAACUGAUCGUUCUUUCUUAUAUUAAUAUUCUUUCUCGAUCAGUUGUCUUU
B30: Ib_S4_P5E.1_K5.1_C5.1_H5.1_A5.1_F5.1_[T8G]_[A10T]_T5.1 (ssRNA)
RNA: UUUGACAACUGAUCGUUCUUUCUUGUAUUAGUUUUCUUUCUCGAUCAGUUGUCUUU
B31: Ib_S4_P5E.1_K5.1_C5.1_H5.1_[T1C]_A5.1_F5.1_[T8A]_T5.1 (ssRNA)
RNA: UUUGACAACUGAUCGUUCUUUCUCGUAUUAAUAUUCUUUCUCGAUCAGUUGUCUUU
B32: Ib_S4_P5E.1_K5.1_C5.1_H5.1_A5.1_F5.1_[T9A]_[A10T]_T5.1 (ssRNA)
RNA: UUUGACAACUGAUCGUUCUUUCUUGUAUUAUAUUUCUUUCUCGAUCAGUUGUCUUU
B33: Ib_S4_P5E.1_K5.1_C5.1_H5.1_[A4T]_A5.1_F5.1_[T9A]_T5.1 (ssRNA)
RNA: UUUGACAACUGAUCGUUCUUUCUUGUUUUAUAAUUCUUUCUCGAUCAGUUGUCUUU
B34: Ib_S4_P5E.1_K5.1_C5.1_H5.1_[G2A]_A5.1_F5.1_[A10T]_T5.1 (ssRNA)
RNA: UUUGACAACUGAUCGUUCUUUCUUAUAUUAUUUUUCUUUCUCGAUCAGUUGUCUUU
B35: Ib_S4_P5E.1_K5.1_C5.1_H5.1_[T3C]_A5.1_F5.1_[T8C]_T5.1 (ssRNA)
RNA: UUUGACAACUGAUCGUUCUUUCUUGCAUUACUAUUCUUUCUCGAUCAGUUGUCUUU
B36: Ib_S4_P5E.1_K5.1_C5.1_H5.1_[A4G]_A5.1_F5.1_[T8C]_T5.1 (ssRNA)
RNA: UUUGACAACUGAUCGUUCUUUCUUGUGUUACUAUUCUUUCUCGAUCAGUUGUCUUU
B37: Ib_S4_P5E.1_K5.1_C5.1_H5.1_[A4C]_A5.1_F5.1_[T9A]_T5.1 (ssRNA)
RNA: UUUGACAACUGAUCGUUCUUUCUUGUCUUAUAAUUCUUUCUCGAUCAGUUGUCUUU
B38: Ib_S4_P5E.1_K5.1_C5.1_H5.1_A5.1_[T6A]_F5.1_[T8C]_T5.1 (ssRNA)
RNA: UUUGACAACUGAUCGUUCUUUCUUGUAUAACUAUUCUUUCUCGAUCAGUUGUCUUU
B39: Ib_S4_P5E.1_K5.1_C5.1_H5.1_[A4T]_A5.1_F5.1_[A10T]_T5.1 (ssRNA)
RNA: UUUGACAACUGAUCGUUCUUUCUUGUUUUAUUUUUCUUUCUCGAUCAGUUGUCUUU
B40: Ib_S4_P5E.1_K5.1_C5.1_H5.1_A5.1_[T5A]_F5.1_[T8A]_T5.1 (ssRNA)
RNA: UUUGACAACUGAUCGUUCUUUCUUGUAAUAAUAUUCUUUCUCGAUCAGUUGUCUUU
B41: Ib_S4_P5E.1_K5.1_C5.1_H5.1_A5.1_[T5G]_F5.1_[T8C]_T5.1 (ssRNA)
RNA: UUUGACAACUGAUCGUUCUUUCUUGUAGUACUAUUCUUUCUCGAUCAGUUGUCUUU
B42: Ib_S4_P5E.1_K5.1_C5.1_H5.1_A5.1_[T6A]_F5.1_[T8A]_T5.1 (ssRNA)
RNA: UUUGACAACUGAUCGUUCUUUCUUGUAUAAAUAUUCUUUCUCGAUCAGUUGUCUUU
B43: Ib_S4_P5E.1_K5.1_C5.1_H5.1_[T1G]_A5.1_F5.1_[T9A]_T5.1 (ssRNA)
RNA: UUUGACAACUGAUCGUUCUUUCUGGUAUUAUAAUUCUUUCUCGAUCAGUUGUCUUU
B44: Ib_S4_P5E.1_K5.1_C5.1_H5.1_[T1C]_A5.1_F5.1_[A10C]_T5.1 (ssRNA)
RNA: UUUGACAACUGAUCGUUCUUUCUCGUAUUAUUCUUCUUUCUCGAUCAGUUGUCUUU
B45: Ib_S4_P5E.1_K5.1_C5.1_H5.1_[T3C]_A5.1_F5.1_[T8A]_T5.1 (ssRNA)
RNA: UUUGACAACUGAUCGUUCUUUCUUGCAUUAAUAUUCUUUCUCGAUCAGUUGUCUUU

What follows are binders tested against T1, PUF4 RNA-binding domain (assay: Mg; RNA-MaP; 20 mM Na-HEPES pH 7.4, 30 mM KOAc, 0.75 mM MgCl2, 0.1% Tween-20, 5% glycerol, 0.1 mg/mL BSA, 2 mM DTT; 25 C; 0.0125-409.6 nM protein). Details: tags: N-His6-TEV cleaved; C-SNAP kept, Cy3B-labelled; label: tethered on chip by stalled RNA polymerase.

Binder | Kd
B1 | 0.996 nM
B2 | 14.5 nM
B3 | 1.25 nM
B4 | 2.55 nM
B5 | 21 nM
B6 | 3.08 nM
B7 | 1.36 nM
B8 | 2.33 nM
B9 | 253 nM
B10 | 5.79 nM
B11 | 10.3 nM
B12 | 0.977 nM
B13 | 488 nM
B14 | 105 nM
B15 | 628 nM
B16 | 36.4 nM
B17 | 201 nM
B18 | 1790 nM
B19 | 35.7 nM
B20 | > 2300 nM
B21 | 3.13 nM
B22 | 37 nM
B23 | 26.8 nM

Binder | Kd
B24 | 107 nM
B25 | 688 nM
B26 | 50.3 nM
B27 | 493 nM
B28 | 7.38 nM
B29 | 598 nM
B30 | 393 nM
B31 | 964 nM
B32 | 1.18 nM
B33 | 33.2 nM
B34 | 259 nM
B35 | 478 nM
B36 | 28.4 nM
B37 | 57.1 nM
B38 | 5.07 nM
B39 | 119 nM
B40 | 13.8 nM
B41 | 13.1 nM
B42 | 9.5 nM
B43 | 1300 nM
B44 | > 2300 nM
B45 | 1010 nM
